In one data set the target is PCG2-DBD 12-138 (Magnaporthe oryzae, UniProt G4NA99 12-138). The experiment in a line: SPR; SPR (Biacore T100, steady state): 20 mM Tris pH 8.0, 150 mM NaCl, 0.005% Tween20; temperature not stated. Particulars: protein: recombinant; tags: N-terminal 6xHis; chain copies: 2; label: 5'-biotin on strand S2; blunt. For orientation: SPR reads the build-up and loss of mass on a sensor chip optically.

In a further data set the target is PCG2-DBD 12-128 (Magnaporthe oryzae, UniProt G4NA99 12-128). The description is as above. Particulars: protein: recombinant; tags: N-terminal 6xHis; label: 5'-biotin on strand S2; blunt.
Data set [1] has as its target T1, PCG2-DBD WT (Magnaporthe oryzae, UniProt G4NA99 1-138). The description is as above. Particulars: protein: recombinant; tags: N-terminal 6xHis (pHAT2); chain copies: 2; label: 5'-biotin on strand S2; blunt.
In the next data set the target is PCG2-DBD 1-128 (Magnaporthe oryzae, UniProt G4NA99 1-128). The description is as above. Particulars: protein: recombinant; tags: N-terminal 6xHis; label: 5'-biotin on strand S2; blunt.
Data set [2] has as its target T1, PCG2-DBD WT. The experiment in a line: crystal structure; two PCG2-DBD monomers per duplex; SPR (Biacore T100, steady state): 20 mM Tris pH 8.0, 150 mM NaCl, 0.005% Tween20; temperature not stated. Particulars: protein: recombinant; tags: N-terminal 6xHis (pHAT2); chain copies: 2; blunt.

These results are taken from paper PMC4333399.

B1: MCB1 DNA (SPR) (dsDNA)
DNA 1: CTTACGCGTCATTG
DNA 2: CAATGACGCGTAAG
B1: the Kd with PCG2-DBD 12-138 stood at 1.37 ± 0.45 µM; in the data set with PCG2-DBD 12-128, 48.3 ± 5.2 µM; in the data set with PCG2-DBD WT [1] it was 0.81 ± 0.03 µM; with PCG2-DBD 1-128 it was 29.8 ± 6.3 µM.

B2: MCB1 DNA (crystal) (dsDNA)
DNA 1: CAATGACGCGTAAG
DNA 2: CTTACGCGTCATTG
On to B2, for which, in the data set with PCG2-DBD WT [2], the binding result was “binds”.

One may read the Kd as the concentration at which binding is half-saturated.
